Experimental data: patent publication US9777041B2, “Protein nanofibers from self-assembling pentamers” (New York University, priority 2013, dated 2017)
Where “and” joins values, the source holds several entries; their conditions need not be identical. Equal values may be shown once.

Assays:
Format in all cases: physicochemical
[1] = Circular dichroism wavelength scans (secondary structure); conditions: for −θ222 × 10^3 / −θmin × 10^3: 10 μM protein; for random coil / α helices / β sheet: CD, K2D method
Experimental: (§1) Circular dichroism: Circular dichroism (CD) measurements were conducted on a Jasco J-815 CD spectrometer. Wavelength and temperature scans were conducted with 10 μM (6.3×10^−2 mg/mL) protein concentrations. The wavelength spectrum was measured over a range from 190 to 250 nm with a step size of 1 nm Mean residue ellipticity (MRE) was calculated from raw data according to the procedure described in Gunasekar et al. 2009. Secondary structure analysis of α-helical, β-sheet, and random coil content was calculated with the K2D method using DichroWeb software. Temperature scans of each protein were performed over a range of 20-85° C. with a temperature step of 1° C./min at 222 nm. Scans were also performed at of 2° C./min and 5° C./min to evaluate dependence of thermal melt signatures on scan speed. All measurements were made in duplicates of independently prepared proteins and data represents the average. Thermodynamic properties of wt and Q were determined through analysis of thermal melts. A two-state model was used, where assumptions included monophasic behavior and reversible melting behavior. These assumptions were confirmed experimentally by melting (from 20 to 85° C.) and cooling (from 85 to 20° C.) the proteins. Calculation of thermodynamic parameters including Tm, ΔG°, ΔH°, and ΔS° were performed according to the method described by Greenfield.
To assess the secondary structure of the proteins under acidic as well as neutral and basic conditions in solution, CD measurements were performed. […] The presence of residue P28 towards the center of Q may have influenced the secondary structure, showing decreased helical content when compared to wt at pH 4 and 10 (FIG. 16). The negative control, L, was completely unstructured, devoid of helical content at pH 4 (FIG. 11). […] As the pH increased, the helical content of soluble Q protein increased.
Mean residual ellipticities from circular dichroism measurements at pH 4, 8, and 10 for wt, L, and Q. The data presented in Table 5 represents the average and standard deviation of at least two replicates.

[2] = Circular dichroism thermal melts at 222 nm, van't Hoff analysis; conditions: for Tm: 10 μM protein; for ΔG° (free energy of folding): at 25° C.; for ΔS°: ΔS° = ΔH°/Tm
Experimental: as §1
Thermodynamic properties were assessed via thermal melt of the proteins at 222 nm. Prior to calculating thermodynamic constants, assumptions of monophasic behavior and melt reversibility were confirmed experimentally for wt and Q at all pHs by melting and cooling proteins (FIGS. 18a-18d). The van't Hoff equation was applied to thermal melts of the proteins in the range of 20-85° C.

[3] = Transmission electron microscopy of protein fibers; conditions: pH 4, 50 mM PB
Experimental: Transmission electron microscopy: A JEOL JEM-1400 transmission electron microscope (TEM) was used to study the supramolecular protein structure. […] After 1 minute, the grids were blotted using filter paper and rinsed with 3-4 drops Milli Q water to remove excess salts from the buffer. After blotting with filter paper, the sample was negatively stained by adding 3 μL of 1% filtered uranyl acetate, blotted using filter paper, and dried at room temperature for 10-15 minutes. ImageJ software was used to measure the fibers dimensions.

[4] = Confocal microscopy of protein fibers in the presence of curcumin
Experimental: FIGS. 7a-7c show confocal microscopy of CC, Q54, and COMPcc^S wt, in the presence of curcumin. The mixture of protein to curcumin were all at a ratio of 1:5. […] All different proteins are in 50 mM phosphate buffer, pH 4. Protein and curcumin samples were combined and incubated for 12 hours prior to imaging. […] The width of COMPcc^S wt shown in FIG. 7c was determined to be 12.72 μm. […] Overall, Q54 fibers appeared to be more uniform in width, as well as more robust and consistent in fiber formation.
Confocal microscopy: Samples were imaged using a Leica TCS SP2 AOBS confocal microscope system equipped with argon ion and HeNe lasers. A 63×/1.4 NA oil-immersion objective was used for all of the images. Lab-Tek II chambered #1.5 German coverglass system was used as the imaging slide. Curcumin was excited using the 458 nm line of the argon laser, and images were taken with the detection window set between 465 and 560 nm. The pinhole aperture was set at an Airy value of 1.0, which was equivalent to sampling an ˜500 nm vertical z slice of the fiber, as estimated by the axial resolution, rz,confocal≈1.4λcm n/NA^2 (NA, numerical aperture; n, refractive index; λcm, emission wavelength (525 nm)). Interference contrast images were obtained using the Leica tube optics HC 1×/B apparatus with a focusing Bertrand lens. The 3D reconstructions were constructed using ImageJ 64 1.43 in concert with Amira 5.43, employing the Volren 3D rendering routine.

Q: Q54 protein, SEQ ID NO:2, variant of COMPcc; coiled-coil that self-assembles into homopentamers and nanofibers (MRGSHHHHHHGSIEGRVKEITFLKNTAPQMLRELQETNAALQDVRELLRQQSKL)
double minimum, ellipticity at 206 nm ([1]; 206 nm, pH 4 (Table 5)): −6.54×10^3 deg cm^2 dmol^−1 | double minimum, ellipticity at 222 nm ([1]; 222 nm, pH 4 (Table 5)): −3.71×10^3 deg cm^2 dmol^−1 | −θ222 × 10^3 ([1]; pH 4): 3.71 10^3 deg cm^2 dmol^-1 | −θmin × 10^3 ([1]; pH 4): 6.54 10^3 deg cm^2 dmol^-1 | random coil ([1]; pH 4): 55% | α helices ([1]; pH 4): 9% | β sheet ([1]; pH 4): 36% | −θ222 × 10^3 ([1]; pH 8): 6.63 10^3 deg cm^2 dmol^-1 | −θmin × 10^3 ([1]; pH 8): 7.79 10^3 deg cm^2 dmol^-1 | random coil ([1]; pH 8): 57% | α helices ([1]; pH 8): 22% | β sheet ([1]; pH 8): 21% | −θ222 × 10^3 ([1]; pH 10): 6.76 10^3 deg cm^2 dmol^-1 | −θmin × 10^3 ([1]; pH 10): 8.07 10^3 deg cm^2 dmol^-1 | random coil ([1]; pH 10): 57% | α helices ([1]; pH 10): 25% | β sheet ([1]; pH 10): 18% | melting temperatures (Tm) ([2]; across all pH values (4, 8, 10)): 46.4-63.5 °C | increase in Tm compared to the parent wt ([2]; pH 4): 7.2 °C | ΔH° (van't Hoff enthalpy) ([2]; pH 4): -32.3 kcal/mol | Tm ([2]; pH 4): 55.3 °C | ΔG° (free energy of folding) ([2]; pH 4): -3.3 kcal/mol | ΔS° ([2]; pH 4): -97.1 cal/(mol·K) | increase in Tm compared to the parent wt ([2]; pH 8): 14.7 °C | ΔH° (van't Hoff enthalpy) ([2]; pH 8): -32.6 kcal/mol | Tm ([2]; pH 8): 63.5 °C | ΔG° (free energy of folding) ([2]; pH 8): -3.8 kcal/mol | ΔS° ([2]; pH 8): -96.8 cal/(mol·K) | ΔH° (van't Hoff enthalpy) ([2]; pH 10): -46.4 kcal/mol | Tm ([2]; pH 10): 46.4 °C | ΔG° (free energy of folding) ([2]; pH 10): -3.1 kcal/mol | ΔS° ([2]; pH 10): -145 cal/(mol·K) | fiber formation seen by TEM [3]: regularly forms fibers with high levels of structure | protofibril diameters [3]: 3.5±0.5 nm | fiber diameters ([3]; listed as Q54): 50-100 nm | protofibril diameters ([3]; listed as Q54): 3-4 nm | microfiber diameter ([4]; in the presence of curcumin (10 μM Q, 50 μM curcumin), pH 4): 16 μm and 16.0±5.6 μm | average width of protein fibers ([4]; protein:curcumin 1:5, 20 mM protein, 100 mM curcumin, 50 mM phosphate buffer pH 4, 12 hours): 16.87±9 μm
